Data: paper PMC3229523, “Identification of Lactoferricin B Intracellular Targets Using an Escherichia coli Proteome Chip” (PLoS ONE, 2011)
Ends that are not written are not given here. * marks the point of attachment. Biotin = O=C1N[C@H]2[C@H](CS[C@H]2CCCCC(=O)*)N1

Experiments:
Assay in all cases: peptide or protein array; E. coli proteome chip: purified His-tagged proteins printed in duplicate on Fullmoon slides, blocked with 1% BSA; 10 nM N-terminal biotinylated LfcinB with 1% BSA, room temperature, 1 h; detected with DyLight 649-labeled streptavidin, ratio to DyLight 549-labeled anti-His antibody; ProCAT normalisation, local cut-off; triplicate chips
Details in all cases: both partners purified
[1] = biological target: RplW (E. coli K-12, UniProt P0ADZ0 1-100)
[2] = biological target: T1, AtpH (E. coli K-12, UniProt P0ABA4 1-177)
T1 construct: AtpH, E. coli K-12

[3] = biological target: T2, EnvR (E. coli K-12, UniProt P0ACT2 1-220)
T2 construct: EnvR, E. coli K-12
T2 sequence (looked up): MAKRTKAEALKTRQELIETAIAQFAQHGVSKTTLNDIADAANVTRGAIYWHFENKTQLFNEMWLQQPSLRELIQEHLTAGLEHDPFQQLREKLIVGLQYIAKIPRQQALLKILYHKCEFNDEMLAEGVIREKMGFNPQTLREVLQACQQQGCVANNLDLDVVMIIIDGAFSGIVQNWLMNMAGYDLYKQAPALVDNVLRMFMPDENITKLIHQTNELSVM

[4] = biological target: T3, RfaS (E. coli K-12, UniProt P27126 1-311)
T3 construct: RfaS, E. coli K-12
T3 sequence (looked up): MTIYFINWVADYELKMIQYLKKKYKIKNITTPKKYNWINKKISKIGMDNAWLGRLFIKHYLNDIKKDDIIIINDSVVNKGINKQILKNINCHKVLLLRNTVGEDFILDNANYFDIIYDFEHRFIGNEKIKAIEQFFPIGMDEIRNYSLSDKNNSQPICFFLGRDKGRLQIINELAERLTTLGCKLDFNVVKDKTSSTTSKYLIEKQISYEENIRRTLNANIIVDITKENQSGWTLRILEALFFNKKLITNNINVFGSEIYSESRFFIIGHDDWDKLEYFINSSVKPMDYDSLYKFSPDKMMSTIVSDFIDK

[5] = biological target: T4, RfaD (E. coli K-12, UniProt P67910 1-310)
T4 construct: RfaD, E. coli K-12
T4 sequence (looked up): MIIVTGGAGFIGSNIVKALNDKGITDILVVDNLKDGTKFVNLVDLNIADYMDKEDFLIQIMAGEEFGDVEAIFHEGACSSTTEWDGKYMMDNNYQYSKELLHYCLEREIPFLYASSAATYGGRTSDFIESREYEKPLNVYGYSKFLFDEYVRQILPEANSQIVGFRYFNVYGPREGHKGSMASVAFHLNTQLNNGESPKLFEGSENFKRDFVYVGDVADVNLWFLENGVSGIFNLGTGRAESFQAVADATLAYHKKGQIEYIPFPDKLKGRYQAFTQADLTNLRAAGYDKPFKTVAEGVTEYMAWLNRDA

[6] = biological target: RplN (E. coli K-12, UniProt P0ADY3 1-123)
[7] = biological target: T5, YheH (E. coli K-12, UniProt P45760 7-125)
T5 construct: YheH, E. coli K-12
T5 sequence (looked up): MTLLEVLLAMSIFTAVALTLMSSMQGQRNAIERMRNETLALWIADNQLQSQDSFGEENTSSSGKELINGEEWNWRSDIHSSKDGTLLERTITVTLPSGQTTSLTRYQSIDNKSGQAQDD

[8] = biological target: T6, YijC (E. coli K-12, UniProt P0ACU5 1-234)
T6 construct: YijC, E. coli K-12
T6 sequence (looked up): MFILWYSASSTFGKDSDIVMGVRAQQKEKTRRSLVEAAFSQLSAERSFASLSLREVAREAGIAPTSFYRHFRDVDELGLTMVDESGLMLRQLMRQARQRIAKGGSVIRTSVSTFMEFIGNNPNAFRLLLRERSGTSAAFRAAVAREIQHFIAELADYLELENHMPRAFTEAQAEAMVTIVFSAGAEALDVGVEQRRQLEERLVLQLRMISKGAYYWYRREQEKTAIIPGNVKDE

[9] = biological target: T7, AgaY (E. coli K-12, UniProt P0AB74 1-286)
T7 construct: AgaY, E. coli K-12

Measured: binding result

T1 sequence (P0ABA4 whole entry): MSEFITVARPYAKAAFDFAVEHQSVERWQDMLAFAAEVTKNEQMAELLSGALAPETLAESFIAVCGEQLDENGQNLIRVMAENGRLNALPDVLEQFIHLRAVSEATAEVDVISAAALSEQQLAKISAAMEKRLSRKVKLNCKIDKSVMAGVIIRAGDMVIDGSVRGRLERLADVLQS
T7 sequence (P0AB74 whole entry): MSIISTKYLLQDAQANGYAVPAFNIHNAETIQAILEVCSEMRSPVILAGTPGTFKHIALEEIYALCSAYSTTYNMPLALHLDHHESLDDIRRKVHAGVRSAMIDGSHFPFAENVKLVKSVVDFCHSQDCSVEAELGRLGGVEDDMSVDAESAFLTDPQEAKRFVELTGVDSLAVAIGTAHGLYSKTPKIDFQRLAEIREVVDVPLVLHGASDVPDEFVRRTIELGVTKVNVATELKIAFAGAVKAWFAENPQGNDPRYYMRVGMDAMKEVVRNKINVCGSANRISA

B1: N-terminal biotinylated Lactoferricin B (peptide, UniProt P24627 36-60, looked up)
peptide: Biotin-FKCRRWQWRMKKLGAPSITCVRRAF
modifications: ends and bridges not checked
notes: lactoferricin B (LfcinB), cationic antimicrobial peptide of 25 amino acids; also called biotinylated LfcinB; biotin-labeled LfcinB; source: bought: Kelowna Inc
binds: [1] | [2] | [3] | [4] | [5] | [6] | [7] | [8] | [9]
